For experiment [1], the system named is clone C2. The experiment in a line: Effects of EGF and PDGF on proliferation and survival, clone C2. The experiment is classed as cell-based, human. The following applies: added to growth medium with FGF-2 and 50% CM, EGF 40 ng/mL, PDGF 20 ng/mL. Here is the method:
(§1) EGF and PDGF Enhance Proliferation Rate and Cell Survival. To facilitate the expansion of the human CNS clones, we identified factors that increase the proliferation rate and/or cell survival. To examine the effects of EGF and PDGF on the proliferation and survival of the human CNS clones, 40 ng/mL EGF, 20 ng/mL PDGF or both were added to the standard growth medium, which already contained FGF-2 and 50% CM, and total cell number and BrdU uptake and incorporation were assessed as described above. For clone C2, EGF or PDGF addition increased the total cell number (FIG. 11A) by approximately 2-fold. This increase in cell number was due to enhanced cell viability (decreased cell death), since there were only slight increases in proliferation rate (assessed by BrdU uptake and incorporation, FIG. 11B). […] In the case of clone C10, EGF (but not PDGF) addition increased the total cell number (FIG. 12A) by approximately 40%. […] This increase in cell number was due, at least in part, to enhanced proliferation rates; BrdU uptake and incorporation increase about 2-fold with EGF or EGF+PDGF addition (FIG. 12B), and doubling times (based on cell counts as a function of days in vitro, data not shown) decreased from 3 days (no EGF or PDGF addition) to 2 days (EGF+PDGF addition). […]

For experiment [2], the system named is clone C10. The experiment in a line: Effects of EGF and PDGF on proliferation and survival, clone C10. It is filed as cell-based, human. Here is the method:
as §1

B1: EGF: human recombinant epidermal growth factor (protein, UniProt P01133 23-1207, looked up)
Pro-epidermal growth factor: PQHWSCPEGTLAGNGNSTCVGPAPFLIFSHGNSIFRIDTEGTNYEQLVVDAGVSVIMDFHYNEKRIYWVDLERQLLQRVFLNGSRQERVCNIEKNVSGMAINWINEEVIWSNQQEGIITVTDMKGNNSHILLSALKYPANVAVDPVERFIFWSSEVAGSLYRADLDGVGVKALLETSEKITAVSLDVLDKRLFWIQYNREGSNSLICSCDYDGGSVHISKHPTQHNLFAMSLFGDRIFYSTWKMKTIWIANKHTGKDMVRINLHSSFVPLGELKVVHPLAQPKAEDDTWEPEQKLCKLRKGNCSSTVCGQDLQSHLCMCAEGYALSRDRKYCEDVNECAFWNHGCTLGCKNTPGSYYCTCPVGFVLLPDGKRCHQLVSCPRNVSECSHDCVLTSEGPLCFCPEGSVLERDGKTCSGCSSPDNGGCSQLCVPLSPVSWECDCFPGYDLQLDEKSCAASGPQPFLLFANSQDIRHMHFDGTDYGTLLSQQMGMVYALDHDPVENKIYFAHTALKWIERANMDGSQRERLIEEGVDVPEGLAVDWIGRRFYWTDRGKSLIGRSDLNGKRSKIITKENISQPRGIAVHPMAKRLFWTDTGINPRIESSSLQGLGRLVIASSDLIWPSGITIDFLTDKLYWCDAKQSVIEMANLDGSKRRRLTQNDVGHPFAVAVFEDYVWFSDWAMPSVMRVNKRTGKDRVRLQGSMLKPSSLVVVHPLAKPGADPCLYQNGGCEHICKKRLGTAWCSCREGFMKASDGKTCLALDGHQLLAGGEVDLKNQVTPLDILSKTRVSEDNITESQHMLVAEIMVSDQDDCAPVGCSMYARCISEGEDATCQCLKGFAGDGKLCSDIDECEMGVPVCPPASSKCINTEGGYVCRCSEGYQGDGIHCLDIDECQLGEHSCGENASCTNTEGGYTCMCAGRLSEPGLICPDSTPPPHLREDDHHYSVRNSDSECPLSHDGYCLHDGVCMYIEALDKYACNCVVGYIGERCQYRDLKWWELRHAGHGQQQKVIVVAVCVVVLVMLLLLSLWGAHYYRTQKLLSKNPKNPYEESSRDVRSRRPADTEDGMSSCPQPWFVVIKEHQDLKNGGQPVAGEDGQAADGSMQPTSWRQEPQLCGMGTEQGCWIPVSSDKGSCPQVMERSFHMPSYGTQTLEGGVEKPHSLLSANPLWQQRALDPPHQMELTQ
modifications: Pro-epidermal growth factor
Consider B1, for which the “increase in total cell number” value in experiment [1] is listed as “approximately 2 fold”; in experiment [2] (EGF 40 ng/mL added to growth medium with FGF-2 and 50% CM), “approximately 40%”. Besides, the “increase in BrdU uptake and incorporation” value in experiment [2] is “approximately 2 fold”.

Values taken from US6713247B1, “Human CNS cell lines and methods of use therefor” (Signal Pharmaceuticials, Inc., priority 1996, dated 2004).
